The source of these data is US20100009014A1, “Use of composition for manufacture of medicant and method for inhibiting formation of body fat” (Maxluck Biotechnology Corp., priority 2008, published 2010).

The experiment is described as follows: Epididymal fat weight and body weight, lactoferrin vs trivalent chromium vs combination (Test Example 5). Format: in vivo, C57BL/6JNarl mice. The following applies: fed 7 weeks; for Body weight / Epididymal fat weight: high-fat diet. On the procedure:
The C57BL/6JNarl mice (N=70) are fed with a mouse diet (high-fat Rodent TestDiet, PMI Nutrition International Inc., MO, U.S.A.; 67% of calories provided by fat). The C57BL/6JNarl mice are randomly divided into seven groups and there are ten mice in each group. In one experimental group, the mice are fed with the mouse diet mixed with lactoferrin (NZMP lactoferrin, New Zealand, low dose: 40 mg/kg BW/day, high dose: 80 mg/kg BW/day). In another experimental group, the mice are fed with the mouse diet mixed with trivalent chromium (chromium (III) chloride hexahydrate, low dose: 40 μg/kg BW/day Cr^3+, high dose: 80 μg/kg BW/day Cr^3+). In yet another experimental group, the mice are fed with the mouse diet mixed with a lactoferrin/trivalent chromium composition (low dose: lactoferrin of 40 mg/kg BW/day with Cr^3+ of 40 μg/kg BW/day, high dose: lactoferrin of 80 mg/kg BW/day with Cr^3+ of 80 μg/kg BW/day). In the control group, the mice are fed with the mouse diet containing no other additive. The C57BL/6JNarl mice aged 8 weeks are fed for 7 weeks and then sacrificed to measure the weight of Epididymal fat and body weight, as shown in Table 5.
Accordingly, it can be known that the lactoferrin/trivalent chromium composition provides more significant efficiency in comparison to single lactoferrin or trivalent chromium.

Setting [1] is: High dose (lactoferrin 80 mg/kg BW/day and/or Cr3+ 80 μg/kg BW/day).
The mark [2] stands for this setting: Low dose (lactoferrin 40 mg/kg BW/day and/or Cr3+ 40 μg/kg BW/day).

B1: Lactoferrin: NZMP lactoferrin, New Zealand; glycoprotein capable of binding metal ions, given alone as comparison (protein, UniProt P24627 20-708, looked up)
Lactotransferrin: APRKNVRWCTISQPEWFKCRRWQWRMKKLGAPSITCVRRAFALECIRAIAEKKADAVTLDGGMVFEAGRDPYKLRPVAAEIYGTKESPQTHYYAVAVVKKGSNFQLDQLQGRKSCHTGLGRSAGWIIPMGILRPYLSWTESLEPLQGAVAKFFSASCVPCIDRQAYPNLCQLCKGEGENQCACSSREPYFGYSGAFKCLQDGAGDVAFVKETTVFENLPEKADRDQYELLCLNNSRAPVDAFKECHLAQVPSHAVVARSVDGKEDLIWKLLSKAQEKFGKNKSRSFQLFGSPPGQRDLLFKDSALGFLRIPSKVDSALYLGSRYLTTLKNLRETAEEVKARYTRVVWCAVGPEEQKKCQQWSQQSGQNVTCATASTTDDCIVLVLKGEADALNLDGGYIYTAGKCGLVPVLAENRKSSKHSSLDCVLRPTEGYLAVAVVKKANEGLTWNSLKDKKSCHTAVDRTAGWNIPMGLIVNQTGSCAFDEFFSQSCAPGADPKSRLCALCAGDDQGLDKCVPNSKEKYYGYTGAFRCLAEDVGDVAFVKNDTVWENTNGESTADWAKNLNREDFRLLCLDGTRKPVTEAQSCHLAVAPNHAVVSRSDRAAHVKQVLLHQQALFGKNGKNCPDKFCLFKSETKNLLFNDNTECLAKLGGRPTYEEYLGTEYVTAIANLKKCSTSPLLEACAFLTR
Regarding B1, the “Epididymal fat weight and body weight vs control group (in words)” value is “cannot achieve significant efficiency”. For the same molecule, under setting [1], the Body weight is 27.9 ± 1.37 g and the Epididymal fat weight was found to be 0.82 ± 0.2 g. Also, under setting [2], the Body weight came out at 27.7 ± 2.19 g and the Epididymal fat weight is listed as 0.72 ± 0.28 g.
